Laboratory results: IntAct's records for PubMed 21185211

B1: Septin-4 (Homo sapiens), O43236-6 (parent)
chain: MIKRFLEDTTDDGELSKFVKDFSGNASCHPPEAKTWASRPQVPEPRPQAPDLYDDDLEFRPPSRPQSSDNQQYFCAPAPLSPSARPRSPWGKLDPYDSSEDDKEYVGFATLPNQVHRKSVKKGFDFTLMVAGESGLGKSTLVNSLFLTDLYRDRKLLGAEERIMQTVEITKHAVDIEEKGVRLRLTIVDTPGFGDAVNNTECWKPVAEYIDQQFEQYFRDESGLNRKNIQDNRVHCCLYFISPFGHGYGPSLRLLAPPGAVKGTGQEHQGQGCH
partner: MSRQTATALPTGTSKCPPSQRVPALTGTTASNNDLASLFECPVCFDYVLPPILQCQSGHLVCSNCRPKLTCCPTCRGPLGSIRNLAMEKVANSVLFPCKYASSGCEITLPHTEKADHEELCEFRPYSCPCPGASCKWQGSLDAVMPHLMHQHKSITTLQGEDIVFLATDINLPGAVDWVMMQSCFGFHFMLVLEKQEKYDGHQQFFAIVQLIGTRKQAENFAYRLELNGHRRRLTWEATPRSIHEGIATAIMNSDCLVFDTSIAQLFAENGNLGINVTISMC

Variants of: B1
Conditions: with siah1_human SIAH1, Q8IUQ4

| effect of a mutation on the interaction | Variant |
| --- | --- |
| disrupting interaction | V42A;E44A;R46A |
| disrupting interaction | P40A;V42A;E44A;R46A |
